Among the data in patent US20220177587A1, “METHODS AND USES OF VARIANT CD80 FUSION PROTEINS AND RELATED CONSTRUCTS” (Alpine Immune Sciences, Inc., priority 2018, published 2022) are Jurkat/IL2 reporter RLU values, retold here.

Experiment [1] has as its target CD28 (human) (UniProt P10747).
The target of experiment [2] is PD-L1 (human) (UniProt Q9NZQ7).
Experiment [3] has as its target CD28 (human) (UniProt P10747). The source holds these as a separate data set.
Experiment [4] concerns the target PD-L1 (human) (UniProt Q9NZQ7). This is another data set of the same source.

Where two headings read alike, the source gives them in different places.

Chain of PD-L1 (human) (Q9NZQ7 19-290): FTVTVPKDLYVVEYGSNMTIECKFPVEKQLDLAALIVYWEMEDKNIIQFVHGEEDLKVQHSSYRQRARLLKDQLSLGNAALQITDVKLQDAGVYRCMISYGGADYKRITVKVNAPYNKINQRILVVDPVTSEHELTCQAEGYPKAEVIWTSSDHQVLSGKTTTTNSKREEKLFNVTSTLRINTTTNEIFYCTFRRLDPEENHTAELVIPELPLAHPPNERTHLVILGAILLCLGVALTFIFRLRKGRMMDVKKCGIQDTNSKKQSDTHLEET

On to “CD80 T28Y/Q33H/E35D/D46V/M47I/A71G IgV-Fc (inert) (Fc fusion)”, for which the Jurkat/IL2 reporter RLU at 50 nM, K562/OKT3/PD-L1 aAPC in the experiment with CD28 (human) [1] and with PD-L1 (human) [2] was 580 RLU each time.
For the substance “CD80 Q33L/E35D/M43I/Y53F/T62S/L85Q IgV-Fc (inert) (Fc fusion)”, the Jurkat/IL2 reporter RLU at 50 nM, K562/OKT3/PD-L1 aAPC in the experiment with CD28 (human) [1] and in the experiment with PD-L1 (human) [2] was 168 RLU in each case.
Consider “CD80 E35D/M43I/M47V/K89N IgV-Fc (inert) (Fc fusion)”, for which the Jurkat/IL2 reporter RLU at 50 nM, K562/OKT3/PD-L1 aAPC in the experiment with CD28 (human) [1] and with PD-L1 (human) [2] was 1090 RLU in each case.
As to “CD80 E35D/D46E/M47V/N63D/L85Q IgV-Fc (inert) (Fc fusion)”, the Jurkat/IL2 reporter RLU at 50 nM, K562/OKT3/PD-L1 aAPC in the experiment with CD28 (human) [1] and with PD-L1 (human) [2] was 1380 RLU in each case.
Regarding “CD80 E35D/T41S/M47V/L97Q IgV-Fc (inert) (Fc fusion)”, the Jurkat/IL2 reporter RLU at 50 nM, K562/OKT3/PD-L1 aAPC with CD28 (human) [1] and in the experiment with PD-L1 (human) [2] was 594 RLU each time.
In the case of “CD80 E35D/M47L/A71G/L85M/F92Y IgV-Fc (inert) (Fc fusion)”, the Jurkat/IL2 reporter RLU at 50 nM, K562/OKT3/PD-L1 aAPC with CD28 (human) [1] and with PD-L1 (human) [2] was 1320 RLU in each case.
For “CD80 E35D/L85Q/K93T/E95V/L97Q IgV-Fc (inert) (Fc fusion)”, the Jurkat/IL2 reporter RLU at 50 nM, K562/OKT3/PD-L1 aAPC with CD28 (human) [1] and in the experiment with PD-L1 (human) [2] was 315 RLU throughout.
Consider “CD80 H18Y/A26E/E35D/M47L/L85Q/D90G IgV-Fc (inert) (Fc fusion)”, for which the Jurkat/IL2 reporter RLU at 50 nM, K562/OKT3/PD-L1 aAPC with CD28 (human) [1] and in the experiment with PD-L1 (human) [2] was 1510 RLU in each case.
Turning to “CD80 E35D/T41S/M43I/A71G/D90G IgV-Fc (inert) (Fc fusion)”, the Jurkat/IL2 reporter RLU at 50 nM, K562/OKT3/PD-L1 aAPC with CD28 (human) [1] and with PD-L1 (human) [2] was 1120 RLU in each case.
As to “CD80 E35D/T41S/M43V/M47I/L70M/A71G IgV-Fc (inert) (Fc fusion)”, the Jurkat/IL2 reporter RLU at 50 nM, K562/OKT3/PD-L1 aAPC with CD28 (human) [1] and in the experiment with PD-L1 (human) [2] was 1670 RLU each time.
Take “CD80 E35D/M47V/N48T/L85Q IgV-Fc (inert) (Fc fusion)”: the Jurkat/IL2 reporter RLU at 50 nM, K562/OKT3/PD-L1 aAPC in the experiment with CD28 (human) [1] and in the experiment with PD-L1 (human) [2] was 897 RLU each time.
“CD80 E35D/M47I/L85Q/D90G IgV-Fc (inert) (Fc fusion)”: the Jurkat/IL2 reporter RLU at 50 nM, K562/OKT3/PD-L1 aAPC in the experiment with CD28 (human) [1] and with PD-L1 (human) [2] was 1440 RLU each time.
Regarding WT CD80-ECD-Fc (effector) (Fc fusion), the results for the Jurkat/IL2 reporter RLU at 50 nM, K562/OKT3/PD-L1 aAPC with CD28 (human) [3] and with CD28 (human) [1] were 3040 RLU and 1790 RLU, respectively.
In the case of “CD80 E35D/D46E/M47V/A71D/D90G IgV-Fc (inert) (Fc fusion)”, the Jurkat/IL2 reporter RLU at 50 nM, K562/OKT3/PD-L1 aAPC in the experiment with CD28 (human) [1] and in the experiment with PD-L1 (human) [2] was 1040 RLU each time.
In the case of “CD80 E35D/Y53H/A71G/D90G/L97R IgV-Fc (inert) (Fc fusion)”, the Jurkat/IL2 reporter RLU at 50 nM, K562/OKT3/PD-L1 aAPC with CD28 (human) [1] and in the experiment with PD-L1 (human) [2] was 1720 RLU throughout.
As to “CD80 Q27H/E35D/M47I/L85Q/D90G IgV-Fc (inert) (Fc fusion)”, the Jurkat/IL2 reporter RLU at 50 nM, K562/OKT3/PD-L1 aAPC in the experiment with CD28 (human) [1] and with PD-L1 (human) [2] was 1310 RLU each time.
On to “CD80 Q33R/E35D/M47V/N48K/L85M/F92L IgV-Fc (inert) (Fc fusion)”, for which the Jurkat/IL2 reporter RLU at 50 nM, K562/OKT3/PD-L1 aAPC in the experiment with CD28 (human) [1] and with PD-L1 (human) [2] was 215 RLU in each case.
Consider “CD80 R29H/E35D/M43V/M47I/I49V IgV-Fc (inert) (Fc fusion)”, for which the Jurkat/IL2 reporter RLU at 50 nM, K562/OKT3/PD-L1 aAPC with CD28 (human) [1] and with PD-L1 (human) [2] was 227 RLU throughout.
For the substance “CD80 V22D/E35D/M47L/L85Q IgV-Fc (inert) (Fc fusion)”, the Jurkat/IL2 reporter RLU at 50 nM, K562/OKT3/PD-L1 aAPC in the experiment with CD28 (human) [1] and with PD-L1 (human) [2] was 1140 RLU in each case.
With “CD80 H18Y/V22A/E35D/M47V/T62S/A71G IgV-Fc (inert) (Fc fusion)”, the Jurkat/IL2 reporter RLU at 50 nM, K562/OKT3/PD-L1 aAPC with CD28 (human) [1] and in the experiment with PD-L1 (human) [2] was 1380 RLU throughout.
As to “CD80 E35D/M38T/D46E/M47V/N48S IgV-Fc (inert) (Fc fusion)”, the Jurkat/IL2 reporter RLU at 50 nM, K562/OKT3/PD-L1 aAPC with CD28 (human) [1] and with PD-L1 (human) [2] was 1320 RLU each time.
As to “CD80 E35D/M47V/A71G/E88D IgV-Fc (inert) (Fc fusion)”, the Jurkat/IL2 reporter RLU at 50 nM, K562/OKT3/PD-L1 aAPC with CD28 (human) [1] and with PD-L1 (human) [2] was 1220 RLU throughout.
Consider “CD80 E35D/M47V/A71G IgV-Fc (inert) (Fc fusion)”, for which the Jurkat/IL2 reporter RLU at 50 nM, K562/OKT3/PD-L1 aAPC with CD28 (human) [1] and with PD-L1 (human) [2] was 1190 RLU throughout.
Take “CD80 Q27H/E35D/D46V/M47L/A71G IgV-Fc (inert) (Fc fusion)”: the Jurkat/IL2 reporter RLU at 50 nM, K562/OKT3/PD-L1 aAPC in the experiment with CD28 (human) [1] and with PD-L1 (human) [2] was 978 RLU in each case.
As for “CD80 I30V/E35D/M47V/A71G/A91V IgV-Fc (inert) (Fc fusion)”, the Jurkat/IL2 reporter RLU at 50 nM, K562/OKT3/PD-L1 aAPC with CD28 (human) [1] and with PD-L1 (human) [2] was 1500 RLU in each case.
For the substance “CD80 H18Y/E35D/N48K IgV-Fc (inert) (Fc fusion)”, the Jurkat/IL2 reporter RLU at 50 nM, K562/OKT3/PD-L1 aAPC with CD28 (human) [1] and with PD-L1 (human) [2] was 1230 RLU throughout.
Consider “CD80 E35D/D46E/M47V/A71D IgV-Fc (inert) (Fc fusion)”, for which the Jurkat/IL2 reporter RLU at 50 nM, K562/OKT3/PD-L1 aAPC with CD28 (human) [1] and in the experiment with PD-L1 (human) [2] was 683 RLU in each case.
For “CD80 E35D/M47V/N48K/V68M/K89N IgV-Fc (inert) (Fc fusion)”, the Jurkat/IL2 reporter RLU at 50 nM, K562/OKT3/PD-L1 aAPC with CD28 (human) [1] and with PD-L1 (human) [2] was 1440 RLU each time.
“CD80 E35D/M47I/Y87Q/K89E IgV-Fc (inert) (Fc fusion)”: the Jurkat/IL2 reporter RLU at 50 nM, K562/OKT3/PD-L1 aAPC in the experiment with CD28 (human) [1] and with PD-L1 (human) [2] was 1580 RLU in each case.
“CD80 V22D/E35D/M47L/L70M/L97Q IgV-Fc (inert) (Fc fusion)”: the Jurkat/IL2 reporter RLU at 50 nM, K562/OKT3/PD-L1 aAPC with CD28 (human) [1] and with PD-L1 (human) [2] was 1540 RLU throughout.
As for “CD80 E35D/K37E/M47V/N48D/L85Q/D90N IgV-Fc (inert) (Fc fusion)”, the Jurkat/IL2 reporter RLU at 50 nM, K562/OKT3/PD-L1 aAPC in the experiment with CD28 (human) [1] and with PD-L1 (human) [2] was 851 RLU throughout.
As for “CD80 A26E/Q33R/E35D/M47L/L85Q IgV-Fc (inert) (Fc fusion)”, the Jurkat/IL2 reporter RLU at 50 nM, K562/OKT3/PD-L1 aAPC with CD28 (human) [3] and in the experiment with PD-L1 (human) [4] was 500 RLU throughout.
“CD80 Q33L/E35D/M47L/A71G/F92S IgV-Fc (inert) (Fc fusion)”: the Jurkat/IL2 reporter RLU at 50 nM, K562/OKT3/PD-L1 aAPC with CD28 (human) [3] and in the experiment with PD-L1 (human) [4] was 394 RLU throughout.
On to “CD80 Q33K/E35D/D46V/L85Q IgV-Fc (inert) (Fc fusion)”, for which the Jurkat/IL2 reporter RLU at 50 nM, K562/OKT3/PD-L1 aAPC with CD28 (human) [3] and in the experiment with PD-L1 (human) [4] was 504 RLU throughout.
Take “CD80 H18Y/A26E/Q33L/E35D/M47L/L85Q IgV-Fc (inert) (Fc fusion)”: the Jurkat/IL2 reporter RLU at 50 nM, K562/OKT3/PD-L1 aAPC in the experiment with CD28 (human) [3] and with PD-L1 (human) [4] was 408 RLU in each case.
As to “CD80 V22A/E23D/Q33L/E35D/M47V IgV-Fc (inert) (Fc fusion)”, the Jurkat/IL2 reporter RLU at 50 nM, K562/OKT3/PD-L1 aAPC with CD28 (human) [3] and with PD-L1 (human) [4] was 390 RLU in each case.
Regarding “CD80 A26E/E35D/M43I/M47L/L85Q/K86E/R94W IgV-Fc (inert) (Fc fusion)”, the Jurkat/IL2 reporter RLU at 50 nM, K562/OKT3/PD-L1 aAPC with CD28 (human) [3] and in the experiment with PD-L1 (human) [4] was 498 RLU each time.
